These results are taken from publication PMC8384837, “Expanding the binding specificity for RNA recognition by a PUF domain”.

For one data set, the target named is PUF design 2 (human, UniProt Q14671 828-1176, C935T;R936H;Q939E;N971T;H972F;Q975R). Description: EMSA; 10 mM HEPES pH 7.3, 50 mM NaCl, 2 mM DTT, 0.05% Tween 20, 0.1 mg/ml BSA, 0.1 mg/ml yeast tRNA; ~10 nM RNA, 0-1 uM protein, 1 h on ice; 1.2% agarose gel, 1x TBE, room temperature. To be noted: protein: recombinant; tags: N-terminal GST (pGEX-6P-1) removed by HRV3C protease; label: 5' 32P.
Sequence of PUF design 2 (Q14671 828-1176 C935T/R936H/Q939E/N971T/H972F/Q975R): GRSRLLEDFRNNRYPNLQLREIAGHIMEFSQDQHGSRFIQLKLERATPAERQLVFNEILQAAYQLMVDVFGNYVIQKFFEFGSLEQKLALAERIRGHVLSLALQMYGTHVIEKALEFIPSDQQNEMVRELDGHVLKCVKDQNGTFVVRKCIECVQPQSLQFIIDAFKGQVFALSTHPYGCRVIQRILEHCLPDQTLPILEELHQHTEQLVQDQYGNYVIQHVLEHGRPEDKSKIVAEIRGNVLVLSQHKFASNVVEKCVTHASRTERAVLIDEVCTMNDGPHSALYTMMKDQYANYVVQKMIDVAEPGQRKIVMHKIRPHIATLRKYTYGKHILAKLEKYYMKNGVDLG

For a further data set, the target named is PUF variant QFR/VFQ (human, UniProt Q14671 828-1176, S863Q;R864F;Q867R;N899V;Y900F). Described as above. To be noted: protein: recombinant; tags: N-terminal GST (pGEX-6P-1) removed by HRV3C protease; label: 5' 32P.
Sequence of PUF variant QFR/VFQ (Q14671 828-1176 S863Q/R864F/Q867R/N899V/Y900F): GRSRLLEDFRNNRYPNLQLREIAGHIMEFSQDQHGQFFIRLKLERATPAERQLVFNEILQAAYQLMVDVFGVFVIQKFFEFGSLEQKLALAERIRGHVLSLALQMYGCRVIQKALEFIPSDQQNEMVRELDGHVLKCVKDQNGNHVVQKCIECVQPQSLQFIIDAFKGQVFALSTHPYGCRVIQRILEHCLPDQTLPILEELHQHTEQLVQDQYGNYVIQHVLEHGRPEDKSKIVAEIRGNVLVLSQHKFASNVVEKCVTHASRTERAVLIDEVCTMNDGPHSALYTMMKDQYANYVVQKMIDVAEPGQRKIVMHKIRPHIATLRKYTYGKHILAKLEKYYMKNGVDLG

For GGUAAGUGUACGUAGUCUGCAU (ssRNA) [design 2 target RNA], in the data set with PUF design 2, the Kd is roughly 45 nM.

Take GGUAAGUGUAAAUAGUCUGCAU (ssRNA) [wild-type NRE RNA]: the binding result in the data set with PUF design 2 and in the data set with PUF variant QFR/VFQ was “no binding” throughout.

As for GGUAAGUGUAAAACGUCUGCAU (ssRNA) [QFR/VFQ target RNA], in the data set with PUF variant QFR/VFQ, the Kd was roughly 110 nM.
